The text below walks through data of publication PMC5238595.

For experiment [1], the target named is hybrid PCP-X construct: teicoplanin PCP-domain and A47934 X-domain, with MBP as N-terminal fusion partner (Actinoplanes teichomyceticus | Streptomyces toyocaensis).
Experiment [2] concerns the target hybrid PCP-X construct: A47934 PCP-domain and teicoplanin X-domain, with MBP as N-terminal fusion partner (Streptomyces toyocaensis | Actinoplanes teichomyceticus) (UniProt Q70AZ6).
The target in experiment [3] is A47934 PCP-X di-domain construct with maltose binding protein as N-terminal fusion partner (Streptomyces toyocaensis).
Experiment [4] addresses PCP-X construct from teicoplanin biosynthesis with MBP as N-terminal fusion partner (Actinoplanes teichomyceticus) (UniProt Q70AZ6).

Sequence of UniProt Q70AZ6 (Q70AZ6 entry or part of it): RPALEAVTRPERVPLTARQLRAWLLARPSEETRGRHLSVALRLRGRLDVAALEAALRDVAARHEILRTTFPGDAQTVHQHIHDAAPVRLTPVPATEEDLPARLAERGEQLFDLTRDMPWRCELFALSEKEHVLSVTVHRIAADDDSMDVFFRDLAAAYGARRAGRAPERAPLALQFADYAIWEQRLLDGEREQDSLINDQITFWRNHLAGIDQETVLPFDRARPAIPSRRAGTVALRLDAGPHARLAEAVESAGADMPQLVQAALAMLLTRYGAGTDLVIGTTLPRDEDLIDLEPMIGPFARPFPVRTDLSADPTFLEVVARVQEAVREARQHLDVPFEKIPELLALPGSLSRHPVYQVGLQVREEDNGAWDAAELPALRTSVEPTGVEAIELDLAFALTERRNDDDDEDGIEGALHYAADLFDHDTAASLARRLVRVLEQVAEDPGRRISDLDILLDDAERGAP

Regarding “StaF, the D-O-E ring forming Oxy enzyme (cytochrome P450) from A47934 biosynthesis”, in experiment [1], the StaF turnover activity (bicyclic product / sum of mono- and bicyclic product, HPLC-MS) on Act7-rac-Hpg7 bound to MBP-PCPtei-Xsta, with StaH (entry 16) came out at 31.5%; the StaF turnover activity (bicyclic product / sum of mono- and bicyclic product, HPLC-MS) on Tei7-L-Hpg7 bound to MBP-PCPtei-Xsta, with StaH (entry 13) came out at 21.1%. For the same substance, in experiment [2], the StaF turnover activity (bicyclic product / sum of mono- and bicyclic product, HPLC-MS) on Act7-rac-Hpg7 bound to MBP-PCPsta-Xtei, with StaH (entry 12) came out at 7.8%; the StaF turnover activity (bicyclic product / sum of mono- and bicyclic product, HPLC-MS) on Tei7-L-Hpg7 bound to MBP-PCPsta-Xtei, with StaH (entry 9) is 2.9%. In experiment [3], this substance showed a StaF turnover activity (bicyclic product / sum of mono- and bicyclic product, HPLC-MS) on Act7-rac-Hpg7 bound to MBP-PCP-Xsta, with StaH (entry 4) of 25.5%; a StaF turnover activity (bicyclic product / sum of mono- and bicyclic product, HPLC-MS) on Tei7-L-Hpg7 bound to MBP-PCP-Xsta, with StaH (entry 1) of 23.8%. Also, in experiment [4], the StaF turnover activity (bicyclic product / sum of mono- and bicyclic product, HPLC-MS) on Act7-rac-Hpg7 bound to MBP-PCP-Xtei, with StaH (entry 8) stood at 24.9%; the StaF turnover activity (bicyclic product / sum of mono- and bicyclic product, HPLC-MS) on Tei7-L-Hpg7 bound to MBP-PCP-Xtei, with StaH (entry 5) was determined as 5.7%.
